Measurements: patent US4327178A, “Urinary kallikrein assay: specific substrates and assay method” (University of Miami, priority 1981, dated 1982)

Test system: T1, N=C(N)NCCC[C@H](NC(=O)[C@H](Cc1ccccc1)NC(=O)[C@@H]1CCCN1)C(=O)NCc1ccccc1
T1 construct: dialyzed or gel-filtered human urine in the general A1 assay
Assay: Km and Vmax of substrates with purified human urinary kallikrein (Lineweaver-Burk double reciprocal plot)
Format: biochemical
Conditions: other: 62.5 ng purified enzyme, 0.05 M tris-HCl pH 9.5, 37° C., 15 minutes
Experimental: The double reciprocal plot method of H. Lineweaver and D. Burk (J.Am.Chem.Soc. 56, 658 (1934)) was used to estimate Km and Vmax for these substrates. Purified human urinary kallikrein prepared as described by Oza, N. B. and Ryan, J., supra, was used in this study. Reactions were conducted at 37° C. for 15 minutes with 62.5 ng of enzyme and the indicated amount of substrate, in 0.05 M tris-HCl pH 9.5. Reactions were terminated by the addition of a nine-fold excess of 0.1 N NaOH. The ^3 H-labeled product was separated from substrate by extraction with an equal volume (1 ml) of toluene. A 0.5 ml aliquot of the toluene phase was transferred to a scintillation vial containing a toluene-based scintillation fluid and counted. Results for H-ProPheArg-[^3 H]-benzylamide are shown in FIG. 1, and for H-ProPheArg-[^3 H]anilide in FIG. 2. The units of l/v were nmol^-1 min. Units of l/S were μmole^-1.liter.

Substance: human urinary kallikrein (Homo sapiens)
- Km: 3.0 µM
- Vmax: 0.88 mmol/min/mg
